T1: Trx-His-OsbZIP47 FL (Oryza sativa) (UniProt Q5Z6N9)
T1 sequence: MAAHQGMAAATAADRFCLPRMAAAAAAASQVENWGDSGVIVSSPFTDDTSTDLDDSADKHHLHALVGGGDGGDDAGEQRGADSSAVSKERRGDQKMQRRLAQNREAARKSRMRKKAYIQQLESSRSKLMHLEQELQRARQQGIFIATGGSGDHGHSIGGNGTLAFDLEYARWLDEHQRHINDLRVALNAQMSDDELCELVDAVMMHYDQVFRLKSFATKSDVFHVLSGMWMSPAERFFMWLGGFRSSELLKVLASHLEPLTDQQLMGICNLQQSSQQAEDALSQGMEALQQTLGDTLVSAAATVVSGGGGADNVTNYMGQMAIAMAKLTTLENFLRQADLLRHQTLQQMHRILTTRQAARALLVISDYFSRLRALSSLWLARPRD

B1: Thioredoxin-His-tagged OsbZIP47FL (natural protein, rice (Oryza sativa), UniProt Q5Z6N9 1-385, looked up)
chain: MAAHQGMAAATAADRFCLPRMAAAAAAASQVENWGDSGVIVSSPFTDDTSTDLDDSADKHHLHALVGGGDGGDDAGEQRGADSSAVSKERRGDQKMQRRLAQNREAARKSRMRKKAYIQQLESSRSKLMHLEQELQRARQQGIFIATGGSGDHGHSIGGNGTLAFDLEYARWLDEHQRHINDLRVALNAQMSDDELCELVDAVMMHYDQVFRLKSFATKSDVFHVLSGMWMSPAERFFMWLGGFRSSELLKVLASHLEPLTDQQLMGICNLQQSSQQAEDALSQGMEALQQTLGDTLVSAAATVVSGGGGADNVTNYMGQMAIAMAKLTTLENFLRQADLLRHQTLQQMHRILTTRQAARALLVISDYFSRLRALSSLWLARPRD
notes: full-length CDS, amino acid 1 to 385; also called Trx-His-OsbZIP47 FL; Trx-His OsbZIP47; source: E. coli Rosetta (DE3), pET32a, purified

What was measured:
[1] = target: T1, Trx-His-OsbZIP47 FL (Oryza sativa); test: MST; conditions: MST: 10 mM HEPES-KOH pH 8.0, 50 mM NaCl, 0.5% Tween-20, 0.5 mM EDTA, 1 mM MgCl2, 10% glycerol, 80 nM protein, DNA 3.05 nM-100 uM, temperature not stated, EMSA: …
[2] = target: the molecule itself; test: non-reducing SDS-PAGE; purified protein treated with 2 mM diamide, with 20 mM DTT, or with 2 mM diamide followed by 20 mM DTT; non-reducing 10% SDS-PAGE

Molecule | Kd ([1]; oxidized, 1 mM oxidized glutathione) [nM] | Kd ([1]; reduced, 20 mM DTT) [nM] | binding result [2]
CAGCTGGCCCTGACGTCAGCAACCGG (double strand) [OsFCP1 locus EMSA-371] | 2160 | 815 | 
B1 |  |  | binds

— PMC9044032, “OsbZIP47 Is an Integrator for Meristem Regulators During Rice Plant Growth and Development” (Frontiers in Plant Science, 2022)
